# Experimental data as given in the supplement of paper PMC10598134.
# ± gives the standard deviation.
# Assay: collision cross section of modified peptide (TIMS, N2, iRT-aligned); higher = larger / more extended gas-phase ion
# In short: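 On a timsTOF Pro/HT (dda-PASEF, nitrogen, ~2.4 mbar), synthetic peptide pools were analysed after a 120-min nanoflow C18 separation at 60 °C and identified in MaxQuant. Three reference ions served for 1/K0 calibration, with run-wise alignment to the median iRT peptide deviation. Collision cross section comes from the Mason-Schamp equation, using the most abundant feature per charge state averaged over 1–3 technical replicates.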
# [1] = charge state: 3, modification: Methyl (R)
# [2] = charge state: 2, modification: hydroxyisobutyryl
# [3] = charge state: 3, modification: hydroxyisobutyryl
# [4] = charge state: 2, modification: Propionyl
# [5] = charge state: 2, modification: Trimethyl (K)
# [6] = charge state: 3, modification: Trimethyl (K)
# [7] = charge state: 2, modification: Phospho (Y)
# [8] = charge state: 2, modification: GlyGly (K)
# [9] = charge state: 3, modification: GlyGly (K)
# [10] = charge state: 2, modification: Methyl (R)
# [11] = charge state: 2, modification: Malonyl
# [12] = charge state: 3, modification: Malonyl
# [13] = charge state: 2, modification: Crotonyl
# [14] = charge state: 2, modification: Butyryl
# [15] = charge state: 3, modification: Butyryl
# [16] = charge state: 2, modification: Biotin
# [17] = charge state: 3, modification: Crotonyl
# [18] = charge state: 2, modification: HexNAc (ST)
# [19] = charge state: 2, modification: Succinyl
# [20] = charge state: 3, modification: Succinyl
# [21] = charge state: 2, modification: Citrullination (R)
# [22] = charge state: 2, modification: Dimethyl (K)
# [23] = charge state: 3, modification: Dimethyl (K)
# [24] = charge state: 2, modification: Formyl
# [25] = charge state: 2, modification: Methyl (K)
# [26] = charge state: 3, modification: Methyl (K)
# [27] = charge state: 2, modification: Acetyl (K)
# [28] = charge state: 3, modification: Acetyl (K)
# [29] = charge state: 3, modification: Hydroxyproline
sequence,measurement,setting,value
GIGRGTVQALHATGAR [_GIGR(Methyl (R))GTVQALHATGAR_],collision cross section,[1],502.48 ± 1.9 Å²
PANEKATDDYHYEK [_PANEK(hydroxyisobutyryl)ATDDYHYEK_],collision cross section,[2],446.18 ± 0.51 Å²
same,collision cross section,[3],509.04 ± 1.9 Å²
LAEEENKAK [_LAEEENK(Propionyl)AK_],collision cross section,[4],352.31 ± 0.33 Å²
IINEPTAAAIAYGLDKK [_IINEPTAAAIAYGLDK(Trimethyl (K))K_],collision cross section,[5],500.2 ± 1.5 Å²
same,collision cross section,[6],559.85 ± 0.91 Å²
YSTSGSSGLTTGK [_Y(Phospho (Y))STSGSSGLTTGK_],collision cross section,[7],375.26 ± 0.063 Å²
SKHLQEQLNELK [_SK(GlyGly (K))HLQEQLNELK_],collision cross section,[8],420.45 ± 1.4 Å²
same,collision cross section,[9],495.28 ± 2 Å²
GYLGPEQLPDCLK [_GY(Phospho (Y))LGPEQLPDCLK_],collision cross section,[7],400.34 ± 0.08 Å²
IQTKAGEATVK [_IQTK(Trimethyl (K))AGEATVK_],collision cross section,[5],376.56 ± 1.1 Å²
same,collision cross section,[6],436.23 Å²
GGPGSTLSFVGKR [_GGPGSTLSFVGK(hydroxyisobutyryl)R_],collision cross section,[2],388.57 ± 0.81 Å²
LRQQLQAK [_LR(Methyl (R))QQLQAK_],collision cross section,[10],356.39 ± 9.6 Å²
same,collision cross section,[1],413.25 ± 2 Å²
DSSPTTNSKLSALQR [_DSSPTTNSK(Malonyl)LSALQR_],collision cross section,[11],424.62 ± 0.65 Å²
same,collision cross section,[12],494.68 ± 0.88 Å²
ASEALLKQLK [_ASEALLK(Crotonyl)QLK_],collision cross section,[13],379.57 ± 1.1 Å²
DAIHFYNKSLAEHR [_DAIHFYNK(GlyGly (K))SLAEHR_],collision cross section,[9],519.9 ± 0.35 Å²
FSAYIKNSNPALNDNLEK [_FSAYIK(Butyryl)NSNPALNDNLEK_],collision cross section,[14],487.55 ± 1 Å²
same,collision cross section,[15],548.32 ± 1.1 Å²
GSYLGGYSAGRGIYSR [_GSYLGGYSAGR(Methyl (R))GIYSR_],collision cross section,[1],481.98 Å²
VTLEVGKVIQQGR [_VTLEVGK(Biotin)VIQQGR_],collision cross section,[16],422.26 Å²
same,collision cross section,"charge state: 3, modification: Biotin",501.27 Å²
FTEYETQVK [_FTEY(Phospho (Y))ETQVK_],collision cross section,[7],359.15 ± 0.75 Å²
SITHSTVGSKGEK [_SITHSTVGSK(Crotonyl)GEK_],collision cross section,[13],402.71 ± 8.6 Å²
same,collision cross section,[17],442.34 ± 1.6 Å²
APIISGVTK [_APIIS(HexNAc (ST))GVTK_],collision cross section,[18],340.53 ± 0.64 Å²
DTPTSAGPNSFNKGK [_DTPTSAGPNSFNK(Gluratylation)GK_],collision cross section,"charge state: 2, modification: Glutarylation",415.83 ± 1.8 Å²
same,collision cross section,"charge state: 3, modification: Glutarylation",444.87 ± 1.9 Å²
SNEEGSEEKGPEVR [_SNEEGSEEK(Malonyl)GPEVR_],collision cross section,[11],402.09 ± 1.6 Å²
LTEKELAEAASK [_LTEK(Butyryl)ELAEAASK_],collision cross section,[14],394.05 ± 1.5 Å²
same,collision cross section,[15],455.88 Å²
FSAYIKNSNPALNDNLEK [_FSAYIK(Trimethyl (K))NSNPALNDNLEK_],collision cross section,[6],516.88 ± 0.87 Å²
TSSEASVSSSVAK [_T(HexNAc (ST))SSEASVSSSVAK_],collision cross section,[18],394.41 ± 0.76 Å²
ISSNFSSIIAEKLR [_ISSNFSSIIAEK(GlyGly (K))LR_],collision cross section,[8],443.53 ± 6.7 Å²
same,collision cross section,[9],502.71 ± 1.1 Å²
DVNAAIAAIKTK [_DVNAAIAAIK(Crotonyl)TK_],collision cross section,[13],406.32 ± 0.28 Å²
same,collision cross section,[17],463.44 ± 4.2 Å²
DLYEPSHGAK [_DLY(Phospho (Y))EPSHGAK_],collision cross section,[7],375.68 ± 0.063 Å²
SITHSTVGSKGEK [_SITHSTVGSK(Succinyl)GEK_],collision cross section,[19],392.73 ± 1.4 Å²
same,collision cross section,[20],442.37 ± 2.9 Å²
TAIQAAGYPDK [_TAIQAAGY(Phospho (Y))PDK_],collision cross section,[7],361.65 ± 9.9 Å²
VEPIHAVVLPRGK [_VEPIHAVVLPR(Citrullination (R))GK_],collision cross section,[21],406.23 ± 0.55 Å²
same,collision cross section,"charge state: 3, modification: Citrullination (R)",492.34 ± 18 Å²
LGVATVAKGVCGACK [_LGVATVAK(Malonyl)GVCGACK_],collision cross section,[11],416.08 ± 0.71 Å²
same,collision cross section,[12],487.74 Å²
TVSKVDDFLANEAK [_TVSK(Dimethyl (K))VDDFLANEAK_],collision cross section,[22],415.63 Å²
same,collision cross section,[23],482.42 ± 2.9 Å²
SITHSTVGSKGEK [_SITHSTVGSK(Dimethyl (K))GEK_],collision cross section,[22],401.87 ± 2.2 Å²
same,collision cross section,[23],464.51 ± 2.1 Å²
TTGFYSGFSEVAEKR [_TTGFYSGFSEVAEK(Formyl)R_],collision cross section,[24],430.24 ± 0.79 Å²
FDDTNPEKEEAK [_FDDTNPEK(Crotonyl)EEAK_],collision cross section,[13],399.58 ± 0.79 Å²
same,collision cross section,[17],439.29 Å²
HELQANCYEEVKDR [_HELQANCYEEVK(Succinyl)DR_],collision cross section,[19],444.39 Å²
same,collision cross section,[20],483.15 ± 3.9 Å²
LQEKVESAQSEQK [_LQEK(hydroxyisobutyryl)VESAQSEQK_],collision cross section,[2],422.92 ± 0.52 Å²
same,collision cross section,[3],502.35 ± 2.1 Å²
SGKFTQQDIDEAK [_SGK(Trimethyl (K))FTQQDIDEAK_],collision cross section,[5],408.18 ± 1.1 Å²
same,collision cross section,[6],472.62 ± 0.88 Å²
IYELAAGGTAVGTGLNTR [_IY(Nitro (Y))ELAAGGTAVGTGLNTR_],collision cross section,"charge state: 2, modification: Nitro (Y)",447.13 ± 1.1 Å²
FDDTNPEKEEAK [_FDDTNPEK(Trimethyl (K))EEAK_],collision cross section,[5],399.27 ± 1.6 Å²
same,collision cross section,[6],487.6 ± 1.9 Å²
DYSSGFGGKYGVQADR [_DYSSGFGGK(Dimethyl (K))YGVQADR_],collision cross section,[22],435.9 ± 1.8 Å²
same,collision cross section,[23],488.23 ± 0.74 Å²
ASNAAVKLAESK [_ASNAAVK(Crotonyl)LAESK_],collision cross section,[13],375.99 ± 0.26 Å²
VETTVTSLKTK [_VETTVTSLK(Succinyl)TK_],collision cross section,[19],381.14 ± 3.4 Å²
same,collision cross section,[20],451.06 Å²
KYEEIDNAPEER [_K(Succinyl)YEEIDNAPEER_],collision cross section,[19],412.18 ± 0.54 Å²
same,collision cross section,[20],490.15 Å²
IISSIEQKEENK [_IISSIEQK(Methyl (K))EENK_],collision cross section,[25],408.26 ± 2.5 Å²
same,collision cross section,[26],450.18 ± 5 Å²
ASEALLKQLK [_ASEALLK(Formyl)QLK_],collision cross section,[24],369.4 ± 0.89 Å²
TQDQISNIKYHEEFEK [_TQDQISNIK(hydroxyisobutyryl)YHEEFEK_],collision cross section,[2],492.05 Å²
same,collision cross section,[3],557.98 ± 1.2 Å²
FGRGTGLTQPSQR [_FGR(Citrullination (R))GTGLTQPSQR_],collision cross section,[21],390.81 ± 0.16 Å²
PSVGSQSNQAGQGKR [_PSVGSQSNQAGQGK(hydroxyisobutyryl)R_],collision cross section,[2],418.62 ± 0.53 Å²
same,collision cross section,[3],477.11 ± 9.7 Å²
TPNLYIYSKK [_TPNLYIYSK(GlyGly (K))K_],collision cross section,[9],446.34 ± 1.1 Å²
IQQELQTAKK [_IQQELQTAK(Trimethyl (K))K_],collision cross section,[5],374.97 ± 0.61 Å²
same,collision cross section,[6],436.54 ± 2.4 Å²
DTGEKLTVAENEAETK [_DTGEK(Malonyl)LTVAENEAETK_],collision cross section,[11],444.04 ± 1.8 Å²
PASGAGAGAGAGKR [_PASGAGAGAGAGK(Acetyl (K))R_],collision cross section,[27],357.24 ± 1 Å²
same,collision cross section,[28],456.58 ± 2.9 Å²
SGNLTEDDKHNNAK [_SGNLTEDDK(Crotonyl)HNNAK_],collision cross section,[13],426.1 Å²
same,collision cross section,[17],469.87 ± 1.6 Å²
IPQEKCILQTDVK [_IPQEK(GlyGly (K))CILQTDVK_],collision cross section,[8],446.01 ± 0.95 Å²
same,collision cross section,[9],482.94 ± 1.1 Å²
LGNDFHTNKR [_LGNDFHTNK(Acetyl (K))R_],collision cross section,[27],373.86 ± 3.5 Å²
same,collision cross section,[28],444.24 ± 4 Å²
PGSPGPPGSPGPR [_PGSP(Hydroxyproline)GPPGSPGPR_],collision cross section,[29],422.04 ± 4.8 Å²
SGKFTQQDIDEAK [_SGK(Succinyl)FTQQDIDEAK_],collision cross section,[19],414.39 ± 0.54 Å²
TQAYQDQKPGTSGLR [_TQAYQDQK(Methyl (K))PGTSGLR_],collision cross section,[25],422.44 Å²
same,collision cross section,[26],472.98 ± 2.7 Å²
ASAISIKLGSSK [_ASAISIK(Biotin)LGSSK_],collision cross section,[16],410.18 ± 1.1 Å²
GPPGPPGRPGNSGIR [_GPPGPPGRP(Hydroxyproline)GNSGIR_],collision cross section,[29],429.49 ± 1.3 Å²
GRGAAAAGGPQR [_GR(Methyl (R))GAAAAGGPQR_],collision cross section,[10],338.98 ± 2.7 Å²
same,collision cross section,[1],434.02 ± 3.5 Å²
DSINFLDHINGKK [_DSINFLDHINGK(GlyGly (K))K_],collision cross section,[9],464.41 ± 1.6 Å²
GEVGAGAGPGAQAGPSAKR [_GEVGAGAGPGAQAGPSAK(Propionyl)R_],collision cross section,[4],422.82 ± 0.97 Å²
same,collision cross section,"charge state: 3, modification: Propionyl",482.16 ± 0.88 Å²
GTISAPGKVVTAAAQAK [_GTISAPGK(Trimethyl (K))VVTAAAQAK_],collision cross section,[5],476.61 ± 0.99 Å²
same,collision cross section,[6],496.52 ± 0.86 Å²
